What was measured:
[1] = test system: wild-type and variant SNAP-GIPR; assay: Surface SNAP-GIPR expression (SNAP-tag labelling) in AD293 cells; format: cell-based, human; details: for AD293 Surface: Fig S3E, mean; for Surface SNAP-GIPR expression: sheet Fig 1C;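 for all read-outs here: scaled to the experimental average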
Procedure, shortened: (§1)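 Surface GIPR is quantified from wide-field images after labelling intact transfected cells with a membrane-impermeant SNAP probe at 500 nM for 10 min at room temperature. Specific signal, corrected for nontransfected cells, is normalized to the experiment-wide average or to wild-type.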

[2] = test system: wild-type and variant SNAP-GIPR in Gipr-/- mouse islets; assay: Insulin secretion from Gipr-/- mouse islets transduced with GIPR adenoviruses; format: cell-based; details: Fig 6D, Gipr-/- mouse islets
Procedure: (§2) Isolated islets used for insulin secretion assays were treated in 1.5-ml microcentrifuge tubes. Eight-ten islets were used per well with two-three technical replicates per condition. […] At the end of the treatment, supernatants containing the secreted insulin or glucagon were collected, centrifuged at 1000g for 5 min, and transferred to fresh tubes. […] The lysates were sonicated 3× for 10 s in a water bath and centrifuged at 10,000g for 10 min, and the supernatants were collected. The samples were stored at −20°C until the insulin or glucagon concentrations were determined using an Insulin Ultra-Sensitive HTRF Assay kit (62IN2PEG, Revvity) or an HTRF Glucagon Detection Kit (62CGLPEG, Revvity) respectively, according to the manufacturer’s instructions. GraphPad Prism 9.0 was used for the generation of the standard curve and sample concentration extrapolation. The total insulin or glucagon content was calculated by adding the secreted insulin to the insulin content of the lysates, and secretion was reported as the percentage release of total. The percent secretion of islets treated with agonist was normalized to that of islets treated with vehicle and reported as a fold change.

[3] = test system: wild-type and variant SNAP-GIPR; assay: Single-concentration GIP cAMP response by HTRF in INS-1 cells; format: cell-based, human; details: Fig S3E, mean
Procedure: All variants were tested in parallel on each occasion to control for transfection efficiency differences between experiments.

[4] = test system: wild-type and variant SNAP-GIPR; assay: Constitutive and agonist-mediated internalization, reversible SNAP-tag labelling, INS-1 cells; format: cell-based, human; set-up: key to Internalisation, GIP-only / Internalisation, Vehicle / Internalisation, +GIP: % internalization: residual fluorescence after Mesna vs pre-Mesna; details: Mean; for +GIP internalisation (100 nM) / GIP-specific internalisation (100 nM) / Constitutive internalisation (100 nM): Fig 4G; for +GIP internalisation (100 nM) / GIP-specific internalisation (100 nM): GIP 100 nM; for Internalisation, +GIP / Internalisation, GIP-only / Internalisation, Vehicle: Fig S4C, INS-1
Procedure, shortened: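 % internalization = residual specific fluorescence after Mesna / pre-Mesna value. Imaging in TNE buffer pH 8.6; second image 10 min post-Mesna.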

[5] = test system: wild-type and variant SNAP-GIPR in wild-type mouse islets; assay: Insulin secretion from wild-type mouse islets transduced with GIPR adenoviruses; format: cell-based; details: Fig 6F
Procedure: as §2, with “The samples were stored at −20°C until the insulin or glucagon concentrations were determined using an Insulin Ultra-Sensitive HTRF Assay kit (62IN2PEG, Revvity) or an HTRF Glucagon Detection Kit (62CGLPEG, Revvity) respectively, according to the manufacturer’s instructions.” left out

[6] = test system: wild-type and variant SNAP-GIPR; assay: Surface SNAP-GIPR expression (SNAP-tag labelling) in INS-1 cells; format: cell-based, human; details: Fig 4G; Mean
Procedure, shortened: as §1

[7] = column repeated, paired with cAMP 100 nM

B1: R101H (protein)
chain: RAETGSKGQTAGELYQRWERYRRECQETLAAAEPPSGLACNGSFDMYVCWDYAAPNATARASCPWYLPWHHHVAAGFVLHQCGSDGQWGLWRDHTQCENPEKNEAFLDQRLILERLQVMYTVGYSLSLATLLLALLILSLFRRLHCTRNYIHINLFTSFMLRAAAILSRDRLLPRPGPYLGDQALALWNQALAACRTAQIVTQYCVGANYTWLLVEGVYLHSLLVLVGGSEEGHFRYYLLLGWGAPALFVIPWVIVRYLYENTQCWERNEVKAIWWIIRTPILMTILINFLIFIRILGILLSKLRTRQMRCRDYRLRLARSTLTLVPLLGVHEVVFAPVTEEQARGALRFAKLGFEIFLSSFQGFLVSVLYCFINKEVQSEIRRGWHHCRLRRSLGEEQRQLPERAFRALPSGSGPGEVPTSRGLSSGTLPGPGNEASRELESYC
[1]; [7]
  AD293 Surface: 0.3592
[1]; paired with cAMP 100 pM
  AD293 Surface: 0.3592
[1]; replicate 1
  Surface SNAP-GIPR expression: 0.3042
[1]; replicate 2
  Surface SNAP-GIPR expression: 0.5275
[1]; replicate 3
  Surface SNAP-GIPR expression: 0.05814
[1]; replicate 4
  Surface SNAP-GIPR expression: 0.1831
[1]; replicate 5
  Surface SNAP-GIPR expression: 0.7685
[1]; replicate 6
  Surface SNAP-GIPR expression: 0.323
[1]; replicate 7
  Surface SNAP-GIPR expression: 0.4744
[1]; replicate 8
  Surface SNAP-GIPR expression: 0.4381
[1]; replicate 9
  Surface SNAP-GIPR expression: 0.4341
[1]; replicate 10
  Surface SNAP-GIPR expression: 0.6442
[1]; replicate 11
  Surface SNAP-GIPR expression: 0.4281
[1]; replicate 12
  Surface SNAP-GIPR expression: 0.4464
[1]; replicate 13
  Surface SNAP-GIPR expression: 0.04565
[1]; replicate 14
  Surface SNAP-GIPR expression: 0.1907
[1]; replicate 15
  Surface SNAP-GIPR expression: 0.4569
[1]; replicate 16
  Surface SNAP-GIPR expression: 0.5164
[1]; replicate 17
  Surface SNAP-GIPR expression: 0.5151
[1]; replicate 18
  Surface SNAP-GIPR expression: 0.4251
[1]; replicate 19
  Surface SNAP-GIPR expression: 0.384
[1]; replicate 20
  Surface SNAP-GIPR expression: 0.5015
[1]; replicate 21
  Surface SNAP-GIPR expression: 0.5316
[1]; replicate 22
  Surface SNAP-GIPR expression: 0.4149
[1]; replicate 23
  Surface SNAP-GIPR expression: 0.4406
[1]; replicate 24
  Surface SNAP-GIPR expression: 0.4166
[1]; replicate 25
  Surface SNAP-GIPR expression: 0.3346
[1]; replicate 26
  Surface SNAP-GIPR expression: 0.3683
[1]; replicate 27
  Surface SNAP-GIPR expression: 0.2116
[1]; replicate 28
  Surface SNAP-GIPR expression: 0.1755
[1]; replicate 29
  Surface SNAP-GIPR expression: 0.2709
[1]; replicate 30
  Surface SNAP-GIPR expression: 0.3405
[1]; replicate 31
  Surface SNAP-GIPR expression: 0.1773
[1]; replicate 32
  Surface SNAP-GIPR expression: 0.3176
[1]; replicate 33
  Surface SNAP-GIPR expression: 0.2814
[1]; replicate 34
  Surface SNAP-GIPR expression: 0.3758
[1]; replicate 35
  Surface SNAP-GIPR expression: 0.422
[1]; replicate 36
  Surface SNAP-GIPR expression: 0.4366
[1]; replicate 37
  Surface SNAP-GIPR expression: 0.2975
[1]; replicate 38
  Surface SNAP-GIPR expression: 0.1954
[1]; replicate 39
  Surface SNAP-GIPR expression: 0.2342
[1]; replicate 40
  Surface SNAP-GIPR expression: 0.2038
[1]; replicate 41
  Surface SNAP-GIPR expression: 0.2137
[2]; replicate 1
  Insulin secretion, ratio G11 + GIP / G11: 2.4659
[2]; replicate 2
  Insulin secretion, ratio G11 + GIP / G11: 2.05
[2]; replicate 3
  Insulin secretion, ratio G11 + GIP / G11: 1.407
[2]; replicate 4
  Insulin secretion, ratio G11 + GIP / G11: 1.963
[3]
  INS-1 cAMP (100 nM): -0.01312
[4]
  +GIP internalisation (100 nM): 0.1025
  GIP-specific internalisation (100 nM): -0.004871
  Constitutive internalisation (100 nM): 0.1074
  Internalisation, +GIP: 52.1317
  Internalisation, GIP-only: -2.542
  Internalisation, Vehicle: 54.6733
[5]; replicate 1
  Insulin secretion, ratio G11 + GIP / G11: 1.571
[5]; replicate 2
  Insulin secretion, ratio G11 + GIP / G11: 6.006
[5]; replicate 3
  Insulin secretion, ratio G11 + GIP / G11: 2.0139
[5]; replicate 4
  Insulin secretion, ratio G11 + GIP / G11: 1.2264
[5]; replicate 5
  Insulin secretion, ratio G11 + GIP / G11: 0.7288
[6]
  Surface expression: 0.19

B2: E288G (protein)
chain: RAETGSKGQTAGELYQRWERYRRECQETLAAAEPPSGLACNGSFDMYVCWDYAAPNATARASCPWYLPWHHHVAAGFVLRQCGSDGQWGLWRDHTQCENPEKNEAFLDQRLILERLQVMYTVGYSLSLATLLLALLILSLFRRLHCTRNYIHINLFTSFMLRAAAILSRDRLLPRPGPYLGDQALALWNQALAACRTAQIVTQYCVGANYTWLLVEGVYLHSLLVLVGGSEEGHFRYYLLLGWGAPALFVIPWVIVRYLYENTQCWGRNEVKAIWWIIRTPILMTILINFLIFIRILGILLSKLRTRQMRCRDYRLRLARSTLTLVPLLGVHEVVFAPVTEEQARGALRFAKLGFEIFLSSFQGFLVSVLYCFINKEVQSEIRRGWHHCRLRRSLGEEQRQLPERAFRALPSGSGPGEVPTSRGLSSGTLPGPGNEASRELESYC
[1]; [7]
  AD293 Surface: 0.1748
[1]; paired with cAMP 100 pM
  AD293 Surface: 0.1748
[1]; replicate 1
  Surface SNAP-GIPR expression: 0.1869
[1]; replicate 2
  Surface SNAP-GIPR expression: 0.267
[1]; replicate 3
  Surface SNAP-GIPR expression: 0.08361
[1]; replicate 4
  Surface SNAP-GIPR expression: 0.1519
[1]; replicate 5
  Surface SNAP-GIPR expression: 0.1987
[1]; replicate 6
  Surface SNAP-GIPR expression: 0.07439
[1]; replicate 7
  Surface SNAP-GIPR expression: 0.7465
[1]; replicate 8
  Surface SNAP-GIPR expression: 0.3261
[1]; replicate 9
  Surface SNAP-GIPR expression: 0.1689
[1]; replicate 10
  Surface SNAP-GIPR expression: 0.2273
[1]; replicate 11
  Surface SNAP-GIPR expression: 0.2845
[1]; replicate 12
  Surface SNAP-GIPR expression: 0.2606
[1]; replicate 13
  Surface SNAP-GIPR expression: 0.07673
[1]; replicate 14
  Surface SNAP-GIPR expression: 0.0817
[1]; replicate 15
  Surface SNAP-GIPR expression: 0.1221
[1]; replicate 16
  Surface SNAP-GIPR expression: 0.1487
[1]; replicate 17
  Surface SNAP-GIPR expression: 0.2042
[1]; replicate 18
  Surface SNAP-GIPR expression: 0.1937
[1]; replicate 19
  Surface SNAP-GIPR expression: 0.1495
[1]; replicate 20
  Surface SNAP-GIPR expression: 0.1825
[1]; replicate 21
  Surface SNAP-GIPR expression: 0.2069
[1]; replicate 22
  Surface SNAP-GIPR expression: 0.1788
[1]; replicate 23
  Surface SNAP-GIPR expression: 0.167
[1]; replicate 24
  Surface SNAP-GIPR expression: 0.1096
[1]; replicate 25
  Surface SNAP-GIPR expression: 0.2053
[1]; replicate 26
  Surface SNAP-GIPR expression: 0.1578
[1]; replicate 27
  Surface SNAP-GIPR expression: 0.0991
[1]; replicate 28
  Surface SNAP-GIPR expression: 0.1213
[1]; replicate 29
  Surface SNAP-GIPR expression: 0.1325
[1]; replicate 30
  Surface SNAP-GIPR expression: 0.1696
[1]; replicate 31
  Surface SNAP-GIPR expression: 0.159
[1]; replicate 32
  Surface SNAP-GIPR expression: 0.181
[1]; replicate 33
  Surface SNAP-GIPR expression: 0.1299
[1]; replicate 34
  Surface SNAP-GIPR expression: 0.1533
[1]; replicate 35
  Surface SNAP-GIPR expression: 0.1527
[1]; replicate 36
  Surface SNAP-GIPR expression: 0.05767
[1]; replicate 37
  Surface SNAP-GIPR expression: 0.09894
[1]; replicate 38
  Surface SNAP-GIPR expression: 0.1179
[1]; replicate 39
  Surface SNAP-GIPR expression: 0.124
[1]; replicate 40
  Surface SNAP-GIPR expression: 0.1489
[1]; replicate 41
  Surface SNAP-GIPR expression: 0.1584
[2]; replicate 1
  Insulin secretion, ratio G11 + GIP / G11: 2.545
[2]; replicate 2
  Insulin secretion, ratio G11 + GIP / G11: 0.8478
[2]; replicate 3
  Insulin secretion, ratio G11 + GIP / G11: 2.186
[2]; replicate 4
  Insulin secretion, ratio G11 + GIP / G11: 1.083
[3]
  INS-1 cAMP (100 nM): 0.3027
[4]
  +GIP internalisation (100 nM): 0.1101
  GIP-specific internalisation (100 nM): 0.004755
  Constitutive internalisation (100 nM): 0.1053
  Internalisation, +GIP: 49.4833
  Internalisation, GIP-only: 2.12
  Internalisation, Vehicle: 47.3633
[5]; replicate 1
  Insulin secretion, ratio G11 + GIP / G11: 0.8131
[5]; replicate 2
  Insulin secretion, ratio G11 + GIP / G11: 1.885
[5]; replicate 3
  Insulin secretion, ratio G11 + GIP / G11: 1.6101
[5]; replicate 4
  Insulin secretion, ratio G11 + GIP / G11: 1.127
[5]; replicate 5
  Insulin secretion, ratio G11 + GIP / G11: 2.303
[6]
  Surface expression: 0.2232
